Experimental data from publication doi:10.1101/2025.06.15.659787.

Molecular target: [2Fe-2S]-bound Mtb-SufU (sulfide transfer protein SufU, Rv1465, of Mycobacterium tuberculosis H37Rv) (Mycobacterium tuberculosis H37Rv) (UniProt O53156)
Experiment: SEC-MALS

For “[2Fe-2S]-bound Mtb-SufU (sulfide transfer protein SufU, Rv1465, of Mycobacterium tuberculosis H37Rv) (from UniProt O53156 1-162) (natural protein)”, which stoichiometry N is on record?
Its stoichiometry N is 4.
